{"source": "patent US20250215101A1", "about": "“DR5 Agonist and PLK1 Inhibitor or CDK Inhibitor Combination Therapy” (Inhibrx Biosciences, Inc., priority 2022, published 2025)", "molecules": {"B1": {"name": "INBRX-109: DR5-binding polypeptide consisting of SEQ ID NO: 7 (two VHH domains and an Fc region); DR5 agonist (protein)", "chain": "EVQLLESGGGEVQPGGSLRLSCAASGLTFPNYGMGWFRQAPGKEREFVSAIYWSGGTVYYAESVKGRFTISRDNAKNTLYLQMSSLRAEDTAVYYCAVTIRGAATQTWKYDYWGQGTLVTVKPGGSGGSEVQLLESGGGEVQPGGSLRLSCAASGLTFPNYGMGWFRQAPGKEREFVSAIYWSGGTVYYAESVKGRFTISRDNAKNTLYLQMSSLRAEDTAVYYCAVTIRGAATQTWKYDYWGQGTLVTVKPGGGGDKTHTCPPCPAPGGPSVFLFPPKPKDTLMISRTPEVTCVVVDVSHEDPEVKFNWYVDGVEVHNAKTKPREEQYNSTYRVVSVLTVLHQDWLNGKEYKCKVSNKALPAPIEKTISKAKGQPREPQVYTLPPSRDELTKNQVSLTCLVKGFYPSDIAVEWESNGQPENNYKTTPPVLDSDGSFFLYSKLTVDKSRWQQGNVFSCSVMHEALHNHYTQKSLSLSPGK", "modifications": "INBRX-109", "notes": "DR5 agonist"}}, "test_in_all_cases": "Cytotoxicity assay, colorectal cancer cell line panel, onvansertib +/- 1 nM INBRX-109", "assay_type_in_all_cases": "cell-based", "key": {"NCI-H747": {"system": "NCI-H747", "conditions": "NCI-H747; 1 nM INBRX-109 only", "experimental": "(§1) Monolayer cultures of each cell line were harvested for compound screening as detailed below.\n(§2) Also on day 2, test and control articles were added.\n(§3) On day 4, viability measurements were taken. […] Data was graphed in GraphPad Prism 9.\n(§4) The results for a panel of colorectal cancer cell lines are shown in Table 3 and FIGS. 4-6, and the results for a panel of pancreatic cell lines are shown in Table 4 and FIGS. 7 and 8."}, "HT-29": {"system": "HT-29", "conditions": "HT-29; 1 nM INBRX-109 only", "experimental": "as §1, §2, §3, §4"}, "LoVo": {"system": "LoVo", "conditions": "1 nM INBRX-109 only", "experimental": "as §1, §2, §3, §4"}, "LS 513": {"system": "LS 513", "conditions": "LS 513; 1 nM INBRX-109 only", "experimental": "as §1, §2, §3, §4"}, "T84": {"system": "T84", "conditions": "T84; 1 nM INBRX-109 only", "experimental": "as §1, §2, §3, §4"}, "SW-480": {"system": "SW-480", "conditions": "SW-480; 1 nM INBRX-109 only", "experimental": "as §1, §2, §3, §4"}, "DLD-1": {"system": "DLD-1", "conditions": "DLD-1; 1 nM INBRX-109 only", "experimental": "as §1, §2, §3, §4"}, "COLO320DM": {"system": "COLO320DM", "conditions": "1 nM INBRX-109 only", "experimental": "as §1, §2, §3, §4"}, "LS 180": {"system": "LS 180", "conditions": "LS 180; 1 nM INBRX-109 only", "experimental": "as §1, §2, §3, §4"}, "SW-948": {"system": "SW-948", "conditions": "SW-948; 1 nM INBRX-109 only", "experimental": "as §1, §2, §3, §4"}, "SW-1116": {"system": "SW-1116", "conditions": "SW-1116; 1 nM INBRX-109 only", "experimental": "as §1, §2, §3, §4"}, "SNU-C2A": {"system": "SNU-C2A", "conditions": "1 nM INBRX-109 only", "experimental": "as §1, §2, §3, §4"}, "LS 1034": {"system": "LS 1034", "conditions": "LS 1034; 1 nM INBRX-109 only", "experimental": "as §1, §2, §3, §4"}, "RKO": {"system": "RKO", "conditions": "1 nM INBRX-109 only", "experimental": "as §1, §2, §3, §4"}, "SNU-81": {"system": "SNU-81", "conditions": "1 nM INBRX-109 only", "experimental": "as §1, §2, §3, §4"}, "SNU-C5": {"system": "SNU-C5", "conditions": "1 nM INBRX-109 only", "experimental": "as §1, §2, §3, §4"}, "HT-55": {"system": "HT-55", "conditions": "HT-55; 1 nM INBRX-109 only", "experimental": "as §1, §2, §3, §4"}, "NCI-H716": {"system": "NCI-H716", "conditions": "NCI-H716; 1 nM INBRX-109 only", "experimental": "as §1, §2, §3, §4"}, "SW620": {"system": "SW620", "conditions": "SW620; 1 nM INBRX-109 only", "experimental": "as §1, §2, §3, §4"}, "SW-403": {"system": "SW-403", "conditions": "SW-403; 1 nM INBRX-109 only", "experimental": "as §1, §2, §3, §4"}, "Hutu 80": {"system": "Hutu 80", "conditions": "Hutu 80; 1 nM INBRX-109 only", "experimental": "as §1, §2, §3, §4"}, "SW-1463": {"system": "SW-1463", "conditions": "SW-1463; 1 nM INBRX-109 only", "experimental": "as §1, §2, §3, §4"}, "LS 123": {"system": "LS 123", "conditions": "LS 123; 1 nM INBRX-109 only", "experimental": "as §1, §2, §3, §4"}, "HCT-8": {"system": "HCT-8", "conditions": "HCT-8; 1 nM INBRX-109 only", "experimental": "as §1, §2, §3, §4"}, "HCT 116": {"system": "HCT 116", "conditions": "HCT 116; 1 nM INBRX-109 only", "experimental": "as §1, §2, §3, §4"}, "SW-48": {"system": "SW-48", "conditions": "SW-48; 1 nM INBRX-109 only", "experimental": "as §1, §2, §3, §4"}, "SW-837": {"system": "SW-837", "conditions": "SW-837; 1 nM INBRX-109 only", "experimental": "as §1, §2, §3, §4"}, "HCT-15": {"system": "HCT-15", "conditions": "HCT-15; 1 nM INBRX-109 only", "experimental": "as §1, §2, §3, §4"}, "SK-CO-1": {"system": "SK-CO-1", "conditions": "SK-CO-1; 1 nM INBRX-109 only", "experimental": "as §1, §2, §3, §4"}, "LS174T": {"system": "LS174T", "conditions": "1 nM INBRX-109 only", "experimental": "as §1, §2, §3, §4"}}, "data": [{"molecule": "B1", "values": [{"measurement": "Max Cytotox at 1 nM", "setting": "NCI-H747", "value": 13.4, "unit": "%"}, {"measurement": "Max Cytotox at 1 nM", "setting": "HT-29", "value": 19.9, "unit": "%"}, {"measurement": "Max Cytotox at 1 nM", "setting": "LoVo", "value": 16.2, "unit": "%"}, {"measurement": "Max Cytotox at 1 nM", "setting": "LS 513", "value": 92.3, "unit": "%"}, {"measurement": "Max Cytotox at 1 nM", "setting": "T84", "value": 9.1, "unit": "%"}, {"measurement": "Max Cytotox at 1 nM", "setting": "SW-480", "value": 19.7, "unit": "%"}, {"measurement": "Max Cytotox at 1 nM", "setting": "DLD-1", "value": 41.9, "unit": "%"}, {"measurement": "Max Cytotox at 1 nM", "setting": "COLO320DM", "value": 4.7, "unit": "%"}, {"measurement": "Max Cytotox at 1 nM", "setting": "LS 180", "value": 27.2, "unit": "%"}, {"measurement": "Max Cytotox at 1 nM", "setting": "SW-948", "value": 98.5, "unit": "%"}, {"measurement": "Max Cytotox at 1 nM", "setting": "SW-1116", "value": 15.3, "unit": "%"}, {"measurement": "Max Cytotox at 1 nM", "setting": "SNU-C2A", "value": 41.4, "unit": "%"}, {"measurement": "Max Cytotox at 1 nM", "setting": "LS 1034", "value": 56.9, "unit": "%"}, {"measurement": "Max Cytotox at 1 nM", "setting": "RKO", "value": 3.6, "unit": "%"}, {"measurement": "Max Cytotox at 1 nM", "setting": "SNU-81", "value": 82.1, "unit": "%"}, {"measurement": "Max Cytotox at 1 nM", "setting": "SNU-C5", "value": 48.6, "unit": "%"}, {"measurement": "Max Cytotox at 1 nM", "setting": "HT-55", "value": 48.4, "unit": "%"}, {"measurement": "Max Cytotox at 1 nM", "setting": "NCI-H716", "value": 9.2, "unit": "%"}, {"measurement": "Max Cytotox at 1 nM", "setting": "SW620", "value": 19.4, "unit": "%"}, {"measurement": "Max Cytotox at 1 nM", "setting": "SW-403", "value": 15.7, "unit": "%"}, {"measurement": "Max Cytotox at 1 nM", "setting": "Hutu 80", "value": 4.0, "unit": "%"}, {"measurement": "Max Cytotox at 1 nM", "setting": "SW-1463", "value": 28.5, "unit": "%"}, {"measurement": "Max Cytotox at 1 nM", "setting": "LS 123", "value": 3.1, "unit": "%"}, {"measurement": "Max Cytotox at 1 nM", "setting": "HCT-8", "value": 6.7, "unit": "%"}, {"measurement": "Max Cytotox at 1 nM", "setting": "HCT 116", "value": 54.4, "unit": "%"}, {"measurement": "Max Cytotox at 1 nM", "setting": "SW-48", "value": 93.9, "unit": "%"}, {"measurement": "Max Cytotox at 1 nM", "setting": "SW-837", "value": 7.1, "unit": "%"}, {"measurement": "Max Cytotox at 1 nM", "setting": "HCT-15", "value": 49.6, "unit": "%"}, {"measurement": "Max Cytotox at 1 nM", "setting": "SK-CO-1", "value": 92.2, "unit": "%"}, {"measurement": "Max Cytotox at 1 nM", "setting": "LS174T", "value": 41.2, "unit": "%"}]}]}
